{"source": "patent US10800847", "key": {"HLA-B*1402 (B65) (human)": {"target": "HLA-B*1402 (B65) (human)", "assay": "Luminex iBeads (#6), IVIg diluted 1:4"}, "HLA-B*1401 (B64) (human)": {"target": "HLA-B*1401 (B64) (human)", "assay": "Luminex iBeads (#6), IVIg diluted 1:4"}, "HLA-B*1801 (B18) (human)": {"target": "HLA-B*1801 (B18) (human)", "assay": "Luminex iBeads (#6), IVIg diluted 1:4"}, "HLA-B*1510 (B71) (human)": {"target": "HLA-B*1510 (B71) (human)", "assay": "Luminex iBeads (#6), IVIg diluted 1:4"}, "HLA-B*1301 (B13) (human)": {"target": "HLA-B*1301 (B13) (human)", "assay": "Luminex iBeads (#6), IVIg diluted 1:4"}, "[1]": {"target": "HLA-Cw*0302 (Cw10) (human)", "assay": "Luminex, iBeads (#6), 1:4"}, "[2]": {"target": "HLA-Cw*1203 (Cw12) (human)", "assay": "Luminex, iBeads (#6), 1:4"}, "[3]": {"target": "HLA-Cw*1502 (Cw15) (human)", "assay": "Luminex, iBeads (#6), 1:4"}, "[4]": {"target": "Albumin (negative control beads) (human or bovine)", "assay": "Luminex, iBeads (#6), 1:4"}, "[5]": {"target": "HLA-Cw*0102 (Cw1) (human)", "assay": "Luminex, iBeads (#6), 1:4"}, "[6]": {"target": "HLA-Cw*1601 (Cw16) (human)", "assay": "Luminex, iBeads (#6), 1:4"}, "[7]": {"target": "HLA-Cw*0702 (Cw7) (human)", "assay": "Luminex, iBeads (#6), 1:4"}, "[8]": {"target": "HLA-Cw*0303 (Cw9) (human)", "assay": "Luminex, iBeads (#6), 1:4"}, "[9]": {"target": "HLA-Cw*0602 (Cw6) (human)", "assay": "Luminex, iBeads (#6), 1:4"}, "[10]": {"target": "HLA-Cw*0304 (Cw10) (human)", "assay": "Luminex, iBeads (#6), 1:4"}, "[11]": {"target": "HLA-Cw*0501 (Cw5) (human)", "assay": "Luminex, iBeads (#6), 1:4"}, "[12]": {"target": "HLA-Cw*1701 (Cw17) (human)", "assay": "Luminex, iBeads (#6), 1:4"}, "[13]": {"target": "HLA-Cw*0202 (Cw2) (human)", "assay": "Luminex, iBeads (#6), 1:4"}, "[14]": {"target": "HLA-Cw*0401 (Cw4) (human)", "assay": "Luminex, iBeads (#6), 1:4"}, "[15]": {"target": "HLA-Cw*0302 (Cw10) (human)", "assay": "Luminex, iBead vs regular bead MFI, 1:4"}, "[16]": {"target": "HLA-Cw*1203 (Cw12) (human)", "assay": "Luminex, iBead vs regular bead MFI, 1:4"}, "[17]": {"target": "HLA-Cw*1502 (Cw15) (human)", "assay": "Luminex, iBead vs regular bead MFI, 1:4"}, "[18]": {"target": "HLA-Cw*0102 (Cw1) (human)", "assay": "Luminex, iBead vs regular bead MFI, 1:4"}, "[19]": {"target": "HLA-Cw*0702 (Cw7) (human)", "assay": "Luminex, iBead vs regular bead MFI, 1:4"}, "[20]": {"target": "HLA-Cw*1402 (Cw14) (human)", "assay": "Luminex, iBead vs regular bead MFI, 1:4"}, "[21]": {"target": "HLA-Cw*0303 (Cw9) (human)", "assay": "Luminex, iBead vs regular bead MFI, 1:4"}, "[22]": {"target": "HLA-Cw*0602 (Cw6) (human)", "assay": "Luminex, iBead vs regular bead MFI, 1:4"}, "[23]": {"target": "HLA-Cw*0304 (Cw10) (human)", "assay": "Luminex, iBead vs regular bead MFI, 1:4"}, "[24]": {"target": "HLA-Cw*0501 (Cw5) (human)", "assay": "Luminex, iBead vs regular bead MFI, 1:4"}, "[25]": {"target": "HLA-Cw*0801 (Cw8) (human)", "assay": "Luminex, iBead vs regular bead MFI, 1:4"}, "[26]": {"target": "HLA-Cw*0401 (Cw4) (human)", "assay": "Luminex, iBead vs regular bead MFI, 1:4"}, "[27]": {"target": "HLA-B*4201 (B42) single antigen on Luminex beads (human)", "assay": "Luminex single antigen, regular beads (#7), IVIg 1:8"}, "[28]": {"target": "HLA-B*3701 (B37) single antigen on Luminex beads (human)", "assay": "Luminex single antigen, regular beads (#7), IVIg 1:8"}, "[29]": {"target": "HLA-B*2708 (B27) single antigen on Luminex beads (human)", "assay": "Luminex single antigen, regular beads (#7), IVIg 1:8"}, "[30]": {"target": "HLA-B*3901 (B39) single antigen on Luminex beads (human)", "assay": "Luminex single antigen, regular beads (#7), IVIg 1:8"}, "[31]": {"target": "HLA-B*3801 (B38) single antigen on Luminex beads (human)", "assay": "Luminex single antigen, regular beads (#7), IVIg 1:8"}, "[32]": {"target": "HLA-B*4701 (B47) single antigen on Luminex beads (human)", "assay": "Luminex single antigen, regular beads (#7), IVIg 1:8"}, "[33]": {"target": "HLA-B*4402 (B44) single antigen on Luminex beads (human)", "assay": "Luminex single antigen, regular beads (#7), IVIg 1:8"}, "[34]": {"target": "HLA-B*4501 (B45) single antigen on Luminex beads (human)", "assay": "Luminex single antigen, regular beads (#7), IVIg 1:8"}, "[35]": {"target": "HLA-B*4601 (B46) single antigen on Luminex beads (human)", "assay": "Luminex single antigen, regular beads (#7), IVIg 1:8"}, "[36]": {"target": "HLA-B*3501 (B35) single antigen on Luminex beads (human)", "assay": "Luminex single antigen, regular beads (#7), IVIg 1:8"}, "[37]": {"target": "HLA-B*4001 (B60) single antigen on Luminex beads (human)", "assay": "Luminex single antigen, regular beads (#7), IVIg 1:8"}, "[38]": {"target": "HLA-B*4006 (B61) single antigen on Luminex beads (human)", "assay": "Luminex single antigen, regular beads (#7), IVIg 1:8"}, "[39]": {"target": "HLA-B*4101 (B41) single antigen on Luminex beads (human)", "assay": "Luminex single antigen, regular beads (#7), IVIg 1:8"}, "[40]": {"target": "HLA-B*4002 (B61) single antigen on Luminex beads (human)", "assay": "Luminex single antigen, regular beads (#7), IVIg 1:8"}, "[41]": {"target": "HLA-B*2705 (B27) single antigen on Luminex beads (human)", "assay": "Luminex single antigen, regular beads (#7), IVIg 1:8"}}}
{"substance": "IVIg Sandoglobulin (Novartis, Basel, Switzerland) (antibody)", "values": [{"measurement": "MFI", "setting": "HLA-B*1402 (B65) (human)", "result": 152, "unit": "MFI"}, {"measurement": "MFI", "setting": "HLA-B*1401 (B64) (human)", "result": 206, "unit": "MFI"}, {"measurement": "MFI", "setting": "HLA-B*1801 (B18) (human)", "result": 114, "unit": "MFI"}, {"measurement": "MFI", "setting": "HLA-B*1510 (B71) (human)", "result": 271, "unit": "MFI"}, {"measurement": "MFI", "setting": "HLA-B*1301 (B13) (human)", "result": 504, "unit": "MFI"}, {"measurement": "MFI", "setting": "[1]", "result": 522, "unit": "MFI"}, {"measurement": "MFI", "setting": "[2]", "result": 636, "unit": "MFI"}, {"measurement": "MFI", "setting": "[3]", "result": 458, "unit": "MFI"}, {"measurement": "MFI", "setting": "[4]", "result": 667, "unit": "MFI"}, {"measurement": "MFI", "setting": "[5]", "result": 511, "unit": "MFI"}, {"measurement": "MFI", "setting": "[6]", "result": 613, "unit": "MFI"}, {"measurement": "MFI", "setting": "[7]", "result": 746, "unit": "MFI"}, {"measurement": "MFI", "setting": "[8]", "result": 500, "unit": "MFI"}, {"measurement": "MFI", "setting": "[9]", "result": 627, "unit": "MFI"}, {"measurement": "MFI", "setting": "[10]", "result": 520, "unit": "MFI"}, {"measurement": "MFI", "setting": "[11]", "result": 710, "unit": "MFI"}, {"measurement": "MFI", "setting": "[12]", "result": 1050, "unit": "MFI"}, {"measurement": "MFI", "setting": "[13]", "result": 719, "unit": "MFI"}, {"measurement": "MFI", "setting": "[14]", "result": 601, "unit": "MFI"}, {"measurement": "Difference %", "setting": "[15]", "result": -49, "unit": "%"}, {"measurement": "Difference %", "setting": "[16]", "result": -35, "unit": "%"}, {"measurement": "Difference %", "setting": "[17]", "result": -41, "unit": "%"}, {"measurement": "Difference %", "setting": "[18]", "result": -49, "unit": "%"}, {"measurement": "Difference %", "setting": "[19]", "result": -62, "unit": "%"}, {"measurement": "Difference %", "setting": "[20]", "result": -59, "unit": "%"}, {"measurement": "Difference %", "setting": "[21]", "result": -29, "unit": "%"}, {"measurement": "Difference %", "setting": "[22]", "result": -60, "unit": "%"}, {"measurement": "Difference %", "setting": "[23]", "result": -38, "unit": "%"}, {"measurement": "Difference %", "setting": "[24]", "result": -42, "unit": "%"}, {"measurement": "Difference %", "setting": "[25]", "result": -42, "unit": "%"}, {"measurement": "Difference %", "setting": "[26]", "result": -62, "unit": "%"}]}
{"substance": "Octagam (IVIg, Octapharma, Lachen, Switzerland) (antibody)", "values": [{"measurement": "MFI", "setting": "[27]", "result": 364, "unit": "MFI"}, {"measurement": "MFI", "setting": "[28]", "result": 9970, "unit": "MFI"}, {"measurement": "MFI", "setting": "[29]", "result": 54, "unit": "MFI"}, {"measurement": "MFI", "setting": "[30]", "result": 0, "unit": "MFI"}, {"measurement": "MFI", "setting": "[31]", "result": 1000, "unit": "MFI"}, {"measurement": "MFI", "setting": "[32]", "result": 2200, "unit": "MFI"}, {"measurement": "MFI", "setting": "[33]", "result": 4000, "unit": "MFI"}, {"measurement": "MFI", "setting": "[34]", "result": 956, "unit": "MFI"}, {"measurement": "MFI", "setting": "[35]", "result": 2440, "unit": "MFI"}, {"measurement": "MFI", "setting": "[36]", "result": 964, "unit": "MFI"}, {"measurement": "MFI", "setting": "[37]", "result": 987, "unit": "MFI"}, {"measurement": "MFI", "setting": "[38]", "result": 4970, "unit": "MFI"}, {"measurement": "MFI", "setting": "[39]", "result": 393, "unit": "MFI"}, {"measurement": "MFI", "setting": "[40]", "result": 271, "unit": "MFI"}, {"measurement": "MFI", "setting": "[41]", "result": 154, "unit": "MFI"}]}
